Measured values published in PMC8558179, “The C-terminal peptide of CCL21 drastically augments CCL21 activity through the dendritic cell lymph node homing receptor CCR7 by interaction with the receptor N-terminus” (Cellular and Molecular Life Sciences: CMLS, 2021).
“Also recorded” adds a separate entry of the source. One block for each molecule: values may come before it.

Legend:
[1] = target: T1, human CCR7 (Homo sapiens, UniProt P32248); assay: Gαi signaling, BRET-based cAMP (CAMYEL) assay at CCR7 in CHO cells; format: cell-based; conditions: for effect of C21TP on CCL21^Tailless activity (Gαi signaling): CCL21^Tailless (CCL21 1–79) + 10 µM TP71-111, n = 4
T1 construct: CCR7 contains a 24-residue long signal peptide cleaved of from the mature protein; expressed in transfected cells; host or cells: CHO cells (CHO-K1, CHO suspension WT, GAG-deficient and 5xKO GalNAc-T knockout lines), transient transfection
T1 sequence (P32248 25-378): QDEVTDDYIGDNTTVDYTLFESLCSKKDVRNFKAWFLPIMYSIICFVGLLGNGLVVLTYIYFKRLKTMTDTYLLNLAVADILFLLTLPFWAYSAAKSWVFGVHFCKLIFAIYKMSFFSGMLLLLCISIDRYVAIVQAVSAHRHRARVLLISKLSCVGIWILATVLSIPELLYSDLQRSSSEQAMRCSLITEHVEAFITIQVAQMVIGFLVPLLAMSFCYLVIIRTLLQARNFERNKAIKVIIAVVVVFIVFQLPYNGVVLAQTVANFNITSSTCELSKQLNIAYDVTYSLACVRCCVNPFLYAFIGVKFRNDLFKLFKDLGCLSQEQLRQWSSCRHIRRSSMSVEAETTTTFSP
Procedure: (§1) Human DCs were cultured in X-vivo 15 medium with 2% human AB serum and glutamine. CHO-K1 pgsB-618 ATCC® CRL2241™ [24] and CHO-K1 cells were grown in RPMI with 10% FBS and Penicillin/Streptomycin. HS^−/− (CHO EXTL 2/3 −/−), CS^−/− (CSGALNACT 1/2^−/− CHSY1^−/−), 5xKO (GalNAc-T1, 2, 4, 7 and 10 −/−) and WT CHO suspension cells were grown in suspension in 1:1 of EX-Cell CD CHO fusion media and Balanced CD CHO growth A medium supplemented with 2% glutamine and Penicillin/Streptomycin. Cells were kept in a humidified incubator at 37 °C, 5% CO2.
(§2) For cAMP assays, adherent CHO cells were transfected using lipofectamine while suspension cells were transfected using the FectoPro method. Cells were seeded in a 6-well plate, either 500,000 (adherent cells) or 200,000 (suspension cells) cells/well. The next day the cells were transiently transfected with vectors encoding the human CCR7 and CAMYEL sensor (cAMP sensor using YFP-Epac-RLuc) in a 1:5 ratio using lipofectamine (6 µl/well) or FectoPro (4 µl/well). Lipofectamine transfections were terminated by changing to 2 ml fresh cultivation medium after 5 h, while Fectopro transfection was terminated after 3 h by adding 2.5 ml fresh cultivation medium and 2 µl FectoPro Boost reagent per well. The cells were incubated under standard cultivation conditions overnight. For β-arrestin recruitment assays, cells were transfected with CCR7 and vectors expressing a Renilla luciferase arrestin3 fusion protein and membrane-SH3-citrine protein. The cells were then resuspended in PBS w/glucose and seeded in 96-well white iso plates (~ 25,000 cells/well). Coelenterazine (bioluminescence substrate) was added to a final conc. of 5 µM. After 10 min, cells were stimulated with varying ligand concentrations for a total of 40 min. Forskolin was added to each well 5 min after ligand addition to reach a final conc. of 5 µM. The plates were kept in the dark at all times. Emission signal from Rluc and eYFP was measured using the Envision machine at 530 and 480 nm and the BRET signal determined as the ratio between (eYFP/Rluc).

[2] = test system: CCR7-N (CCR7 N36/292A); assay: Gαi signaling, BRET cAMP assay, CCR7 lacking N-glycosylation sites; format: cell-based, human; conditions: CCL21 alone or CCL21 + 10 µM TP71-111, CHO cells, n = 3
Procedure: For cAMP assays, adherent CHO cells were transfected using lipofectamine while suspension cells were transfected using the FectoPro method. Cells were seeded in a 6-well plate, either 500,000 (adherent cells) or 200,000 (suspension cells) cells/well. The next day the cells were transiently transfected with vectors encoding the human CCR7 and CAMYEL sensor (cAMP sensor using YFP-Epac-RLuc) in a 1:5 ratio using lipofectamine (6 µl/well) or FectoPro (4 µl/well). Lipofectamine transfections were terminated by changing to 2 ml fresh cultivation medium after 5 h, while Fectopro transfection was terminated after 3 h by adding 2.5 ml fresh cultivation medium and 2 µl FectoPro Boost reagent per well. The cells were incubated under standard cultivation conditions overnight. […] Emission signal from Rluc and eYFP was measured using the Envision machine at 530 and 480 nm and the BRET signal determined as the ratio between (eYFP/Rluc).
Supplementary file 18_2021_3930_MOESM4_ESM.png: Supplementary file4 C21TP boosting ability is not dependent on N-glycosylation sites. […] Signaling was measured in CHO cells quantified using the BRET based cAMP assay. […] Statistical significance was calculated using two-way ANOVA with Tukey’s correction for multiple test. *P<0.05, **P <0.01, ***P<0.001 (PNG 328 KB)

[3] = target: T1, human CCR7; assay: β-arrestin recruitment, BRET-based assay at CCR7; format: cell-based
Procedure: as §2

[4] = test system: human moDCs naturally expressing CCR7; assay: 3D chemotaxis, time-lapse recording of human moDCs in Collagen I (chemotactic index); format: cell-based
Procedure: Buffy coats were obtained from Rigshospitalet Copenhagen, as anonymous material, with written informed consent from the donors. The local ethics committee at Faculty of Health and Medical Sciences at the University of Copenhagen (Research Ethics Committee for Sund and Science, University of Copenhagen) found the project exempt from approval. DCs were prepared from human peripheral blood mononuclear cells (PBMC) isolated from buffy coats by centrifugation on a Lymphoprep gradient as previously described. Briefly, monocytes were isolated by plastic adherence of PBMC. Adhered monocytes were subsequently cultured and differentiated into immature DCs by incubation with IL-4 (250 U/ml) and GM-CSF (1000 U/ml) for 6 days, followed by activation into mature DCs by incubation with IL-6 (1000 U/ml), IL-1β (1000 U/ml), TNF-α (1000 U/ml), and PGE2 (1 µg/ml) for an additional 2 days in the same medium.
as §1
Chemotaxis assays were conducted as previously described. Briefly, mature human moDCs were left to acclimatize in medium for 30 min at room temperature (RT) upon defrosting, before assay start. DCs were seeded in Bovine Collagen I mixture prepared by mixing 10 µl Na2HCO3 (7.5%), 20 µl MEM (10×), 150 µl PureCol and 90 µl DCs dissolved in X-vivo 15 medium (2 × 10^6 cells/ml). After incubation for 45 min in a humidified incubator at 37 °C (5% CO2), the source and sink reservoirs were filled according to the manufacturer’s instructions and chemotaxis was tracked in a time-lapse microscope with a humidified temperature controlled stage incubator for 12 h at a 2 min interval. Cell migration (approximately 20–40 cells per viewing field) was tracked using a commercial tracking program (Autozell) and subsequently analyzed to get a population-based chemotactic index (CI) value (MATLAB). CI is a measure of net translocation distance to the source relative to total distance traveled and was thus calculated as the ratio of the distance traveled in the direction of the gradient over the total distance traveled and therefore is a conservative measure of the directedness of cell migration.

fold reduction of C21TP boosting effect on CCL21 signaling in 5xKO vs WT ([1]; CCL21 + 10 µM TP71-111, CHO 5xKO vs WT): 25 fold | effect of C21TP on CCL21^Tailless activity (Gαi signaling) [1]: not improved | effect of C21TP on CCL21^Tailless activity (Gαi signaling) ([1]; listed as C21TP): did not affect CCL21^Tailless potency | fold boost of CCL21 signaling activity via CCR7 ([1]; in the presence of C21TP): ~ 100 fold | effect of C21TP on CCL21^Tailless β-arrestin recruitment ([3]; CCL21^Tailless (CCL21 1–79) + 10 µM TP71-111, n = 4): small but significant decrease
Molecule: TP71-111: free CCL21 C-terminal peptide, residues 71–111 (41 amino acids, positively charged) (PSPQKPAQGCRKDRGASKTGKKGKGSKGCKRTERSQTPKGP; UniProt O00585 94-134, looked up, fragment)
boosting of CCL21-induced CCR7 signaling in GAG KO cells ([1]; CHO GAG KO (pgsB 618) vs WT, 10 µM TP71-111, n = 3): tendency that boosting by C21TP (TP71-111) was increased | boosting of CCL21-induced CCR7 signaling in GAG-deficient cells ([1]; CHO HS−/−, CS−/− and GAG KO (pgsB 618) cells, 10 µM TP71-111, n = 3): In none of the GAG-deficient cells did we measure any decrease | boosting of CCL19-induced CCR7 signaling in GAG-deficient cells ([1]; CHO HS−/−, CS−/−, GAG KO cells, 10 µM TP71-111, n = 3, listed as C21TP): similarly unaffected by the lack of GAGs; also recorded: independent of cell GAG status | effect of removing extracellular N-glycosylation sites on signaling or boosting (CCR7-N) [2]: no effect | increase of CCL19-induced DC chemotaxis ([4]; 10 nM CCL19 + 10 µM TP71-111, human moDCs, n = 3–6): significantly increased in the presence of 10 µM C21TP (TP71-111), by approximately twofold | fold boost of CCL21-induced DC chemotaxis (immune cell recruiting activity) ([4]; 10 nM CCL21, highest C21TP concentration 10 µM (0.1–10 µM tested), human moDCs, 12 h tracking, 37 °C, n = 3–11): up to 25 fold | boosting of CCL21-induced DC chemotaxis ([4]; 10 nM CCL21, peptide 10 µM (0.1–10 µM in the dose series), human moDCs): boosted significantly by the C21TP in a dose-dependent manner | DC chemotaxis by C21TP alone ([4]; C21TP without chemokine, data not shown): did not induce DC chemotaxis

pEC50, Gαi signaling, chemokine alone ([1]; no peptide, CHO cells, forskolin 5 µM, n = 4): 6.46 | pEC50, β-arrestin recruitment, chemokine alone ([3]; no peptide, n = 4): undetectable
B1: CCL21: full-length chemokine (residues 1–111), CCR7 ligand, from R&D Systems (protein, UniProt O00585 24-134, looked up)
C-C motif chemokine 21: SDGGAQDCCLKYSQRKIPAKVVRSYRKQEPSLGCSIPAILFLPRKRSQAELCADPKELWVQQLMQHLDKTPSPQKPAQGCRKDRGASKTGKKGKGSKGCKRTERSQTPKGP
effect of removing extracellular N-glycosylation sites on signaling or boosting (CCR7-N) [2]: no effect | chemotaxis towards chemokine alone ([4]; 10 nM chemokine, no peptide, human moDCs): very weak chemotactic cue
